The values that follow come from article PMC2929593.

Experiment in all cases: DTNB continuous spectrophotometric thioesterase assay
What all share (format): biochemical, Escherichia coli
What all share (settings): pH 7.5, 25 °C

Substrate in series [1]: CCCCCCCCCC(=O)SCCNC(=O)CCNC(=O)[C@H](O)C(C)(C)COP(=O)(O)OP(=O)(O)OC[C@H]1O[C@@H](n2cnc3c(N)ncnc32)[C@H](O)[C@@H]1OP(=O)(O)O
Substrate in series [2]: CC(C)(COP(=O)(O)OP(=O)(O)OC[C@H]1O[C@@H](n2cnc3c(N)ncnc32)[C@H](O)[C@@H]1OP(=O)(O)O)[C@@H](O)C(=O)NCCC(=O)NCCSC(=O)c1cccc(O)c1
Substrate in series [3]: CCCCCCCCCCCC(=O)SCCNC(=O)CCNC(=O)[C@H](O)C(C)(C)COP(=O)(O)OP(=O)(O)OC[C@H]1O[C@@H](n2cnc3c(N)ncnc32)[C@H](O)[C@@H]1OP(=O)(O)O
Substrate in series [4]: CC(C)(COP(=O)(O)OP(=O)(O)OC[C@H]1O[C@@H](n2cnc3c(N)ncnc32)[C@H](O)[C@@H]1OP(=O)(O)O)[C@@H](O)C(=O)NCCC(=O)NCCSC(=O)c1ccc(O)cc1
Substrate in series [5]: CCC(=O)SCCNC(=O)CCNC(=O)[C@H](O)C(C)(C)COP(=O)(O)OP(=O)(O)OC[C@H]1O[C@@H](n2cnc3c(N)ncnc32)[C@H](O)[C@@H]1OP(=O)(O)O
Substrate in series [6]: CC(C)(COP(=O)(O)OP(=O)(O)OC[C@H]1O[C@@H](n2cnc3c(N)ncnc32)[C@H](O)[C@@H]1OP(=O)(O)O)[C@@H](O)C(=O)NCCC(=O)NCCSC(=O)Cc1cccc(O)c1
Substrate in series [7]: CC(=O)SCCNC(=O)CCNC(=O)[C@H](O)C(C)(C)COP(=O)(O)OP(=O)(O)OC[C@H]1O[C@@H](n2cnc3c(N)ncnc32)[C@H](O)[C@@H]1OP(=O)(O)O
Substrate in series [8]: CCCCCC(=O)SCCNC(=O)CCNC(=O)[C@H](O)C(C)(C)COP(=O)(O)OP(=O)(O)OC[C@H]1O[C@@H](n2cnc3c(N)ncnc32)[C@H](O)[C@@H]1OP(=O)(O)O
Substrate in series [9]: CCCCCCCCCCCCCCCC(=O)SCCNC(=O)CCNC(=O)[C@H](O)C(C)(C)COP(=O)(O)OP(=O)(O)OC[C@H]1O[C@@H](n2cnc3c(N)ncnc32)[C@H](O)[C@@H]1OP(=O)(O)O

B1: EntH (Escherichia coli K-12) (protein)
chain: MIWKRHLTLDELNATSDNTMVAHLGIVYTRLGDDVLEAEMPVDTRTHQPFGLLHGGASAALAETLGSMAGFMMTRDGQCVVGTELNATHHRPVSEGKVRGVCQPLHLGRQNQSWEIVVFDEQGRRCCTCRLGTAVLG
As to B1, the Km came out at 49 ± 3 µM in series [1]; 35 ± 1 µM in [2]; 45 ± 2 µM in series [3]; 21 ± 2 µM in [4]; 400 ± 40 µM in [5]; 37 ± 1 µM in series [6]. Besides, the Km in series [7] is 800 ± 90 µM; in [8] it was 350 ± 90 µM; in series [9], 55 ± 9 µM. Also, the kcat came out at 0.0267 ± 0.0004 s⁻¹ in [1]; 1.21 ± 0.01 s⁻¹ in series [2]; 0.0281 ± 0.0003 s⁻¹ in series [3]; 1.55 ± 0.05 s⁻¹ in series [4]; 0.0125 ± 0.0006 s⁻¹ in series [5]; 2.1 ± 0.5 s⁻¹ in series [6]. Besides, the kcat was 0.0044 ± 0.0002 s⁻¹ in series [7], 0.058 ± 0.001 s⁻¹ in series [8] and 0.085 ± 0.004 s⁻¹ in series [9].
